These results are taken from publication PMC10945505.

The target in test [1] is F-FGF21FL (UniProt Q9NSA1). Nature of the test: BLI; Octet Red 96, 30°C, 1000 rpm; F-FGF21 proteins at 50 nM captured on AHC (anti-hIgG Fc capture) biosensors, βKlotho in running buffer at 0.2743-200 nM; global fit, 1:1 binding model, monovalent KD. (In general: BLI is a label-free optical method that tracks binding on a fibre tip over time.)
Test [2] addresses F-FGF21∆N (UniProt Q9NSA1). The description is as above.

The Kd is the equilibrium constant for the complex coming apart. A word on the koff: it is a measure of how fast the partners let go of each other. As a reminder, the kon is the rate constant with which the complex forms. In test [1], “Human βKlotho (from UniProt Q86Z14 1-996) (receptor)” came in with a Kd of 10.1 nM, a koff of 0.00124 s⁻¹ and a kon of 122000 M⁻¹ s⁻¹. In test [2], this substance displayed an equilibrium dissociation constant (Kd) of 11.8 nM, a koff of 0.00195 s⁻¹ and an association rate constant (kon) of 166000 M⁻¹ s⁻¹.
